Measured values from PMC3985303.

Molecular target: Guinea pig soluble FcRn (guinea pig)
Assay: SPR

Kd	Substance
5.2 µM	human IgG1 purified from myeloma (from UniProt P01857)
4.2 µM	human IgG2 purified from myeloma (from UniProt P01859)
6.8 µM	human IgG4 purified from myeloma (from UniProt P01861)
